Assay results from US20250376519A1 (JIANGSU HENGRUI PHARMACEUTICALS, published 2025).
Residue numbers refer to the chain shown, from its start.

T1: human DLL3 on cells (human, UniProt Q9NYJ7 27-618)
T1 construct: Endogenous on H1184 and SHP77; Cell line is named under assay; also called H1184; DLL3/H82
T1 sequence: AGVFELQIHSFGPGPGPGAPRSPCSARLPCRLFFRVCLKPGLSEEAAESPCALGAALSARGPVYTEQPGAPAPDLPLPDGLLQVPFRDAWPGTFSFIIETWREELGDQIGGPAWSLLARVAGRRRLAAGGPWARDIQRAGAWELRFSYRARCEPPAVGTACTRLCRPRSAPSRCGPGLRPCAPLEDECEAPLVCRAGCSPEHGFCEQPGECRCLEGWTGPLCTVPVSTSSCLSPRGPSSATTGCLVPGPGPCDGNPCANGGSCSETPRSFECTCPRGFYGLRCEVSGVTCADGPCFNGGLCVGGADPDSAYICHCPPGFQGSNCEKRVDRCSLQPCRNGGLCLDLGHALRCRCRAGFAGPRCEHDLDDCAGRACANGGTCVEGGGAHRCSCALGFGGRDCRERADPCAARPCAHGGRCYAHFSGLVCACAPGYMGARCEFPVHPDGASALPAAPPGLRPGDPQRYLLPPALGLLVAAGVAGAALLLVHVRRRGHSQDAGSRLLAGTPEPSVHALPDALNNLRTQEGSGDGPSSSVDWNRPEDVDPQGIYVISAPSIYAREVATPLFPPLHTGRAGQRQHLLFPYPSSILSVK

T2: human DLL3 (ACRO, DLL3-H52H4) (human, UniProt Q9NYJ7 27-492)
T2 construct: Bought
T2 sequence: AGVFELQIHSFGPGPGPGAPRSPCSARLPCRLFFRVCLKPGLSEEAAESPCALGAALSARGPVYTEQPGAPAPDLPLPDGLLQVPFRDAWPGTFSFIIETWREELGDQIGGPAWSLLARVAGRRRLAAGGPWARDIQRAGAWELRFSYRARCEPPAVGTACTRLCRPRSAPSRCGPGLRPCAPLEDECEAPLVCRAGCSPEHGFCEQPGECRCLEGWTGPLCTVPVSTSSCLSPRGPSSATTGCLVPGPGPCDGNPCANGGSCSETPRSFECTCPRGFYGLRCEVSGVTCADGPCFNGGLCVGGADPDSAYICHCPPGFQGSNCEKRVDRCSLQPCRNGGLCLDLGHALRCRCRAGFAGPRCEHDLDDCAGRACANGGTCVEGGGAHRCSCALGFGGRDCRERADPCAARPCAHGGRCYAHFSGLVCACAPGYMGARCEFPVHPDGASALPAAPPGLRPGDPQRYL

B1: hu6L4H13 (antibody, human IgG1, kappa, V domains shown)
VH: EVQLVQSGSELKKPGASVKVSCKASGYTFTDYYMNWVKQAPGQGLEWMGIINPYSGVTIYNHKFKGRFALSVDKSSNTAYLQISSLKAEDTAVYYCARQDSLLDYAMDYWGQGTTVTVSS
VL: DIQMTQSPSSLSASVGDRVTITCHASQGISGNMGWLQQKPGKAPKGLIYHGANLEDGVPSRFSGSGSGADYTLTISSLQPEDFADYYCVQYAQFPYTFGGGTKVEIKR
notes: also called hu6L4VH13
B2: hu6L2H7 (antibody, human IgG1, kappa, V domains shown)
VH: EVQLVESGGGLVQPGGSLKLSCAASGYTFTDYYMNWVRQASGKGLEWVGIINPYSGVTIYNHKFKGRFTLSVDKSKNTAYLQMNSLKTEDTAVYYCARQDSLLDYAMDYWGQGTTVTVSS
VL: B1 VL with D85T
B3: hu98L2H2 (antibody, human IgG1, kappa, V domains shown)
VH: EVQLVESGGGLVQPGGSLRLSCAASGFTFSDYGIHWVRQAPGKGLEWVAYISSGGYTIYYADTVKGRFTISRDNAKNSLYLQMNSLRAEDTAVYYCARGDYEDIFYTMDYWGQGTTVTVSS
VL: DIQMTQSPSSLSASVGDRVTITCRASRDITKFLNWYQQKPGKAVKLLIYYTSRLHSGVPSRFSGSGSGTDYTLTISSLQPEDFATYYCQQGNTLPWTFGGGTKVEIKR
B4: hu98L3H2 (antibody, human IgG1, kappa, V domains shown)
VH: B3 VH
VL: B3 VL with K42G
B5: hu98L3H4 (antibody, human IgG1, kappa, V domains shown)
VH: B3 VH with I58S
VL: B3 VL with K42G
B6: hu98L3H1 (antibody, human IgG1, kappa, V domains shown)
VH: B3 VH with E102D
VL: B3 VL with K42G
B7: hu98L1H1 (antibody, human IgG1, kappa, V domains shown)
VH: B3 VH with E102D
VL: B3 VL with V44P, Y71F
B8: hu98L3H5 (antibody, human IgG1, kappa, V domains shown)
VH: B3 VH with I34M, I58S
VL: B3 VL with K42G
B9: hu98L2H1 (antibody, human IgG1, kappa, V domains shown)
VH: B3 VH with E102D
VL: B3 VL
B10: PL-1 (bispecific antibody)
chain 1: not shown
chain 2: DIVLTQSPASLAVSPGQRATITCRASESVSIHGTHLMHWYQQKPGQPPKLLIYAASKLESGVPARFSGSGSGTDFTLTINPVEAEDTANYYCQQSFEDPLTFGQGTKLEIKGGGGSGIPPKIECLPIDISIDEGKVLTVASAFTGEPTPEVTWSTGGRKIHSQEQGRFHIENTDDLTTLIIKDVQKQDGGLYTLTLRNEFGSDSATVNIHIRSI
chain 3: not shown
chain 4: not shown
B11: hu110L1H2 (antibody, human IgG1, kappa, V domains shown)
VH: EVQLVQSGAEVKKPGASVKVSCKTSGYTFTDYYMNWVRQAPGQSLEWMGIINPYNGGTSYTQKFKGRVTITVDKSASTAYMELSSLRSEDTAVYYCARHFYDSSYLTYSTMDYWGQGTTVTVSS
VL: DIVMTQSPDSLAVSLGERATINCKASENVGIFVSWYQQKPGQSPKLLIYGASNRYTGVPDRFSGSGSATDFTLTISSLQAEDVAVYYCGQSHSYPLTFGQGTKLEIKR
B12: hu110L1H5 (antibody, human IgG1, kappa, V domains shown)
VH: B11 VH with N55T
VL: B11 VL
B13: hu110L1H4 (antibody, human IgG1, kappa, V domains shown)
VH: B11 VH with N55S
VL: B11 VL
B14: hu110L2H1 (antibody, human IgG1, kappa, V domains shown)
VH: B11 VH with T24A, S44R
VL: B11 VL with D1N, D9K, V85D
B15: hu110L1H1 (antibody, human IgG1, kappa, V domains shown)
VH: B11 VH with T24A, S44R
VL: B11 VL
B16: hu110L1H3 (antibody, human IgG1, kappa, V domains shown)
VH: B11 VH with N55Q
VL: B11 VL
B17: hu110L2H3 (antibody, human IgG1, kappa, V domains shown)
VH: B11 VH with N55Q
VL: B11 VL with D1N, D9K, V85D
B18: hu110L2H6 (antibody, human IgG1, kappa, V domains shown)
VH: B11 VH with G56V
VL: B11 VL with D1N, D9K, V85D
B19: hu110L2H2 (antibody, human IgG1, kappa, V domains shown)
VH: B11 VH
VL: B11 VL with D1N, D9K, V85D
B20: hu110L2H5 (antibody, human IgG1, kappa, V domains shown)
VH: B11 VH with N55T
VL: B11 VL with D1N, D9K, V85D
B21: hu110L2H4 (antibody, human IgG1, kappa, V domains shown)
VH: B11 VH with N55S
VL: B11 VL with D1N, D9K, V85D
B22: hu110L1H6 (antibody, human IgG1, kappa, V domains shown)
VH: B11 VH with G56V
VL: B11 VL

These binders were tested against T1, human DLL3 on cells (assay: flow cytometry, H1184 cells).
Description: (§1) The plates were centrifuged at 300 g for 5 min, and the supernatant was removed. Different concentrations of test antibodies were added at 100 μL/well. The plates were incubated in the dark in a refrigerator at 4° C. for 1 h. After 3 centrifugal washes at 300 g, working concentrations of APC anti-human IgG Fc (BioLegend, 410712) or PE F(ab′)2-goat anti-human IgG (invitrogen, H10104) were added. The plates were incubated in the dark in a refrigerator at 4° C. for 40 min. After 3 centrifugal washes at 300 g, the geometric mean fluorescence intensity was measured on an Invitrogen flow cytometer, and the EC50 values for the binding of the antibodies to DLL3-expressing cells were calculated.

EC50 [nM]	Emax	Binder
0.09	2120	B1
0.07	2200	B2
	2310	B3
	2350	B4
	1600	B5
	2440	B6
	2820	B7
	1540	B8
	2470	B9

These binders were tested against T3, hCTLA4 (human, UniProt P16410 36-162, limits assumed) (assay: ELISA).
T3 construct: bought
T3 sequence (P16410 36-162 limits assumed): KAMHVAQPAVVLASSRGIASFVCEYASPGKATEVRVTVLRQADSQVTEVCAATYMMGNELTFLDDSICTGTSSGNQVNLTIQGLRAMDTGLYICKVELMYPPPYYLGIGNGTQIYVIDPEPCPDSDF

EC50 [nM]	Binder
16.5	B10

What follows are binders tested against T4, hPDL1 (human, UniProt Q9NZQ7 19-239) (assay: ELISA).
T4 construct: bought
T4 sequence (Q9NZQ7 19-239 limits assumed): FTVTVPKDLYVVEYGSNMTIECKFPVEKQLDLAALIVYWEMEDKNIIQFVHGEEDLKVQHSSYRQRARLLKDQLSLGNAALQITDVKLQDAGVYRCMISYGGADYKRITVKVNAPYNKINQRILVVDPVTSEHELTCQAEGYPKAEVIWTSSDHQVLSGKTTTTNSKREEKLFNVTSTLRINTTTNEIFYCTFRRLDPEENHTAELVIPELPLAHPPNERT

EC50 [nM]	Binder
1.6	B10

These binders were tested against T2, human DLL3 (ACRO, DLL3-H52H4) (assay: SPR Biacore 8K, Ab captured on Protein A).
Summary of the method: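 Antibodies captured on a Protein A chip for 18 s; DLL3 or CD3D&3E antigen flowed 180 s, then 600 s dissociation, with real-time detection. Regeneration used 10 mM glycine-HCl pH 1.5 between cycles. Kinetics were obtained by 1:1 model fitting.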

Kd [nM]	koff [s⁻¹]	kon [M⁻¹ s⁻¹]	Binder
0.322	0.000695	2.16e+06	B1
3.06	0.00205	670000	B2
0.55	0.000668	1.22e+06	B3
0.464	0.000732	1.58e+06	B4
1.11	0.00151	1.36e+06	B5
0.232	0.000372	1.6e+06	B6
1.1	0.00171	1.55e+06	B7
1.22	0.00173	1.42e+06	B8
0.269	0.000389	1.45e+06	B9
0.0819	4.26e-05	520000	B11
0.141	6.41e-05	454000	B12
0.0911	4.8e-05	527000	B13
0.115	5.84e-05	509000	B14
0.068	4.17e-05	614000	B15
0.0843	4.75e-05	564000	B16
0.117	6.45e-05	550000	B17
0.167	6.86e-05	411000	B18
0.12	6.25e-05	521000	B19
0.206	8.96e-05	434000	B20
0.103	5.11e-05	496000	B21
0.102	5.32e-05	520000	B22

These binders were tested against T1, human DLL3 on cells (assay: flow cytometry, DLL3/H82 cells).
Description: as §1

EC50 [nM]	Emax	Binder
1.31	4700	B11
1.61	4610	B12
1.51	4580	B13
1.25	4720	B14
1.15	4470	B15
1.15	4560	B16
1.32	4570	B17
1.4	5190	B18
1.25	4750	B19
1.71	4670	B20
1.41	4600	B21
1.66	4620	B22
